Experimental data: patent US20160279196A1 (US Dept. of Health and Human Services, published 2016)
Like-named read-outs stand apart in the source and are kept apart here.

Legend:
[1] = molecular target: T1, naturally processed and presented SSX-2 protein on SSX-2+/HLA-A2+ target cells (human); assay: cell-based or functional assay
[2] = molecular target: T1, naturally processed and presented SSX-2 …; assay: cell-based or functional assay; remark: listed apart in the source

interferon-γ levels (pg/ml), co-culture with 293-A2-SSX2 cells [1] | interferon-γ levels (pg/ml), co-culture with 624 mel cells [1] | interferon-γ levels (pg/ml), co-culture with 938-A2 mel cells [1] | interferon-γ levels (pg/ml), co-culture with 1300 mel cells [1] | interferon-γ levels (pg/ml), co-culture with COS-A2-SSX2 cells [1] | interferon-γ levels (pg/ml), co-culture with K562-A2- Erythroleukemia cells [1] | interferon-γ levels (pg/ml), co-culture with SKOV3 Ovarian cells [1] | interferon-γ levels (pg/ml), co-culture with Skmel 37 mel cells [1] | interferon-γ levels (pg/ml), co-culture with U251 Glioma cells [1] | interferon-γ levels (pg/ml), co-culture with 293-A2-SSX2 cells [2] | interferon-γ levels (pg/ml), co-culture with 624 mel cells [2] | interferon-γ levels (pg/ml), co-culture with 938-A2 mel cells [2] | interferon-γ levels (pg/ml), co-culture with 1300 mel cells [2] | interferon-γ levels (pg/ml), co-culture with COS-A2-SSX2 cells [2] | interferon-γ levels (pg/ml), co-culture with K562-A2- Erythroleukemia cells [2] | interferon-γ levels (pg/ml), co-culture with SKOV3 Ovarian cells [2] | interferon-γ levels (pg/ml), co-culture with Skmel 37 cells [2] | interferon-γ levels (pg/ml), co-culture with U251 Glioma cells [2] | Binder
37300 pg/mL | 47000 pg/mL | 51100 pg/mL | 2720 pg/mL | 56900 pg/mL | 17400 pg/mL | 2220 pg/mL | 10400 pg/mL | 19000 pg/mL | 47300 pg/mL | 57700 pg/mL | 40000 pg/mL | 3460 pg/mL | 164000 pg/mL | 13600 pg/mL | 9860 pg/mL | 10600 pg/mL | 20000 pg/mL | codon-optimized human-mouse chimera SSX-2 TCR (codon-optimized SSX-2 TCR including mouse constant region; expressed from the vector comprising SEQ ID NO: 30) (TCR) TCR alpha: MSLSSLLKVVTASLWLGPGIAQKITQTQPGMFVQEKEAVTLDCTYDTSDPSYGLFWYKQPSSGEMIFLIYQGSYDQQNATEGRYSLNFQKARKSANLVISASQLGDSAMYFCAMTSGFGNEKLTFGTGTRLTIIPNDIQNPEPAVYQLKDPRSQDSTLCLFTDFDSQINVPKTMESGTFITDKTVLDMKAMDSKSNGAIAWSNQTSFTCQDIFKETNATYPSSDVPCDATLTEKSFETDMNLNFQNLSVMGLRILLLKVAGFNLLMTLRLWSS TCR beta: MGPGLLHWMALCLLGTGHGDAMVIQNPRYQVTQFGKPVTLSCSQTLNHNVMYWYQQKSSQAPKLLFHYYDKDFNNEADTPDNFQSRRPNTSFCFLDIRSPGLGDAAMYLCATSRGQGGQPQHFGDGTRLSILEDLRNVTPPKVSLFEPSKAEIANKQKATLVCLARGFFPDHVELSWWVNGKEVHSGVSTDPQAYKESNYSYCLSSRLRVSATFWHNPRNHFRCQVQFHGLSEEDKWPEGSPKPVTQNISAEAWGRACGITSSYQQGVLSATILYEILLGKATLYAVLVSTLVVMAMVKRKNS
29800 pg/mL | 27300 pg/mL | 37000 pg/mL | 2560 pg/mL | 52600 pg/mL | 12500 pg/mL | 2410 pg/mL | 6640 pg/mL | 16700 pg/mL | 52500 pg/mL | 60200 pg/mL | 46100 pg/mL | 3160 pg/mL | 85900 pg/mL | 12800 pg/mL | 11000 pg/mL | 8940 pg/mL | 22900 pg/mL | SSX-2 TCR (HLA-A2 restricted TCR from a natural T cell clone, TRAV14/DV4*01 and TRBV15*02-CB1; expressed from the vector comprising SEQ ID NO: 27) (TCR) TCR alpha: MSLSSLLKVVTASLWLGPGIAQKITQTQPGMFVQEKEAVTLDCTYDTSDPSYGLFWYKQPSSGEMIFLIYQGSYDQQNATEGRYSLNFQKARKSANLVISASQLGDSAMYFCAMTSGFGNEKLTFGTGTRLTIIPNIQNPDPAVYQLRDSKSSDKSVCLFTDFDSQTNVSQSKDSDVYITDKTVLDMRSMDFKSNSAVAWSNKSDFACANAFNNSIIPEDTFFPSPESSCDVKLVEKSFETDTNLNFQNLSVIGFRILLLKVAGFNLLMTLRLWSS TCR beta: MGPGLLHWMALCLLGTGHGDAMVIQNPRYQVTQFGKPVTLSCSQTLNHNVMYWYQQKSSQAPKLLFHYYDKDFNNEADTPDNFQSRRPNTSFCFLDIRSPGLGDAAMYLCATSRGQGGQPQHFGDGTRLSILEDLNKVFPPEVAVFEPSEAEISHTQKATLVCLATGFFPDHVELSWWVNGKEVHSGVSTDPQPLKEQPALNDSRYCLSSRLRVSATFWQNPRNHFRCQVQFYGLSENDEWTQDRAKPVTQIVSAEAWGRADCGFTSVSYQQGVLSATILYEILLGKATLYAVLVSALVLMAMVKRKDF
37500 pg/mL | 37500 pg/mL | 46300 pg/mL | 2600 pg/mL | 64100 pg/mL | 21300 pg/mL | 2530 pg/mL | 8870 pg/mL | 19200 pg/mL | 49100 pg/mL | 47100 pg/mL | 51200 pg/mL | 3050 pg/mL | 138000 pg/mL | 13600 pg/mL | 22500 pg/mL | 11400 pg/mL | 21400 pg/mL | codon-optimized SSX-2 TCR (expressed from the vector comprising SEQ ID NO: 29) (TCR) TCR alpha: MSLSSLLKVVTASLWLGPGIAQKITQTQPGMFVQEKEAVTLDCTYDTSDPSYGLFWYKQPSSGEMIFLIYQGSYDQQNATEGRYSLNFQKARKSANLVISASQLGDSAMYFCAMTSGFGNEKLTFGTGTRLTIIPNIQNPDPAVYQLRDSKSSDKSVCLFTDFDSQTNVSQSKDSDVYITDKTVLDMRSMDFKSNSAVAWSNKSDFACANAFNNSIIPEDTFFPSPESSCDVKLVEKSFETDTNLNFQNLSVIGFRILLLKVAGFNLLMTLRLWSS TCR beta: MGPGLLHWMALCLLGTGHGDAMVIQNPRYQVTQFGKPVTLSCSQTLNHNVMYWYQQKSSQAPKLLFHYYDKDFNNEADTPDNFQSRRPNTSFCFLDIRSPGLGDAAMYLCATSRGQGGQPQHFGDGTRLSILEDLNKVFPPEVAVFEPSEAEISHTQKATLVCLATGFFPDHVELSWWVNGKEVHSGVSTDPQPLKEQPALNDSRYCLSSRLRVSATFWQNPRNHFRCQVQFYGLSENDEWTQDRAKPVTQIVSAEAWGRADCGFTSVSYQQGVLSATILYEILLGKATLYAVLVSALVLMAMVKRKDF
